For this assay, the target named is recombinant cynomolgus monkey PD-L1 soluble protein (cynomolgus monkey) (UniProt G7PSE7). Briefly: sandwich ELISA, antibody captured on anti-human Fc, biotinylated rec. cynomolgus PD-L1 titrated (x axis), fluorescence. In general terms: ELISA stands for enzyme-linked immunosorbent assay.

For orientation: EC50 (read off the curve) means the concentration at which the effect is half-maximal.

Sequence of Avelumab (antibody) (VH): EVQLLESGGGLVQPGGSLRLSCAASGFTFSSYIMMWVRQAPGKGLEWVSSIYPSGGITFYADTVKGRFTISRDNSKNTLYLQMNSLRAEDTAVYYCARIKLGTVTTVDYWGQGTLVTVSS
Sequence of Avelumab (antibody) (VL): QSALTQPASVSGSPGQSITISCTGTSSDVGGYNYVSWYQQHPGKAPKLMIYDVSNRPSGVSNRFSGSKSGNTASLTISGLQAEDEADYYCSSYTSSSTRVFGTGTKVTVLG
Sequence of recombinant cynomolgus monkey PD-L1 soluble protein (cynomolgus monkey) (G7PSE7 entry or part of it): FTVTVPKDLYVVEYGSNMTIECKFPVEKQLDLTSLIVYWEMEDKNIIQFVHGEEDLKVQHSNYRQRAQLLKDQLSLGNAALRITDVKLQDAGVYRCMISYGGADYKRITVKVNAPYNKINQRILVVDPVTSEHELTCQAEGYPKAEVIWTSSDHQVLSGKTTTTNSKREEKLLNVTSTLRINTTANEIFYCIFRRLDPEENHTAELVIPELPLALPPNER

Take Avelumab (antibody): the EC50 (read off the curve) worked out at 0.05 nM.

Source of the values: patent US20220315655A1.
